Laboratory results taken from the nanobody polyreactivity screen of Harvey et al. (2022).

Experiment: yeast display, Sf9 membrane polyspecificity reagent, FACS + sequencing; frameworks hold sequencing errors
Outline: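 Galactose-induced (36–48 hours) yeast carrying a synthetic nanobody display library were exposed to 10% biotinylated, detergent-solubilized Sf9 membrane reagent at 4 °C for 1 hour. FACS followed streptavidin microbead enrichment, using low and high (top ~1%) gates for expression (anti-HA) and reagent binding (streptavidin). Colony PCR, MiSeq 2 × 250 sequencing and CDR-length filtering followed. Labels for polyreactivity reflect the gate of origin.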

| Sequence | polyreactivity (PSR sort gate) |
| --- | --- |
| QVQLVESGGGLVQAGGSLRLSCAASGIIFLDNAMVWYRQAPGKERELVAAITTGGITYYADSVKGRFTISRDNAKNTVYLQMNSLKPEDTAVYYCAADNEWPRYDYWGQGTQVTVSS | low polyreactivity |
| QVQLVESGGGLVQAGGSLRLSCAASGRIFPYYAMGWYRQAPGKERELVAGISYSGTSTYYADSVKGRFTISRDNAKNTVYLQMNSLKPEDTAVYYCATTSWRYGYDYWGQGTQVTVSS | high polyreactivity |
| QVQLVESGGGLVQAGGSLRLSCAASGRTFTNNAMGWYRQAPGKERELVARITKTSGSTHYADSVKGRFTNSRDNAKNTVYLQMNSMKPEDTAVYYCATRGHYHGFYYTYPRYDSWGQGTQVTVSS | low polyreactivity |
| QVQLVESGGGLVQAGGSLRLSCAASGRIFQYNAMGWYRQSPGKERELVAAIRRGGGSTYYADSVKGRFTISRDNAKNTVYLQMNSLKPEDTAVYYCAARRKRVSFYPEYDYWGQGTQVTVSS | low polyreactivity |
| QVQLVESGGGLVQAGGSLRLSCAASGSIFGYYAMGWYRQAPGKERELVAAITSDGSTYYADSVKGRFTITRDNAKNTVNLQMNSLKPEDTAVYYCAAYSWYYTSRYDYWGQGTQVTVSS | low polyreactivity |
| QVQLVESGGGLVQAGGSLRLSCAASGFTFRFYAMGWYRQAPGKERELVATISSRGGRTYYADSVKGRFTISRDNAKNTVYLQMNSLKPEDTAVYYCNKDLYRYPGYDYWGQGTQVTVSS | high polyreactivity |
| QVQLVESGGGLVQAGGSLRLSSAASGSTFDYYAMGWYRQAPGKERELVAAISTSGSSTYYADSVKGRFTISGDNAKNTVYLQMNSLKPEDTAVYYCAAPIRYKGGYWGQGTQVTVSS | low polyreactivity |
| QVQLVESGGGIVQEGGSLRLSCAASGSTFRDYAMGWYRQAPGKERELVAAISSRGATTYYADSVKGRFTISRDNAKNTVYLQMNSLKPEDTAVYYCNARQRRNPGGYGYWGQVTQVTVSS | high polyreactivity |
| QVQLVESGGGLVQAGGSLRLSCAASGITFRSYAMGWYRQAPGKERELVAAISSTGRTYYADSVKGRFTISRDNAKNTVYLQMNSLKPEDTAGYYCNAKRYIWGQGTQVTVSS | high polyreactivity |
| QVQLVESGGGLVQAGGSLRLSCAASGSIFYYNAMGWYRQAPGKERELVAAITSGGSTHYADSVKGRFTISRDNAKNTVYLQMNSLKPEDTAVYYCAADVWYKYHRSAIIVEFDYWGQGTQVTVSS | low polyreactivity |
| QDQLVESGGGLVQARGSLRLSCAASGSIYSRNALGWYRQAPGKERELVAAITYRGGNTYYADSVKGRFTISRDNANNNLYLQMNSLKPEDTAVYYCAADTYGWLYAFEYWGQGTQVTVSS | low polyreactivity |
| QVQLVESGGGLFHAGGSLRLSFAASGSILYNAMGWYRQAPGKERELVAAIDSTSVDTYYADSVKGRFTISRDNAKNTVYLQMNSLKPEDTAVYYCSADYVYDDEGDFWGQGTQVTVSS | high polyreactivity |
| QVQLVESGGGLVQAGGSLRLSCAASGFTLSWYAMGWYRQAPGKERELVATISRGGITYYADSVKGRFTLSRDNANNTVYVQMNSLKPEDTAVYYCAADYRYGWYRYDYWGQGTQVTVSS | high polyreactivity |
| QVQLVESGGGLVQAGGSLRLSCAASGRIIGFNAMGWYRQAPGKERELVASIRTTGGSTRYADSVKGRFTISRDNAKNTVYLQMNSLKPEDTAVYYCAARSRLRYLYDYWGQVTQVTVSS | high polyreactivity |
| QVQLVESGGGLVQAGGSLRLSCAASGRTIAAYAMGWYRQAPGKERELVAAISRSGGSTYYADSVKGRFTISRDNAKNTVYLQMNSLKPEDTAVYYCAAYYIVSSLFGYWGQGTQVTVSS | high polyreactivity |
| QVQLVESGGGLVQAGGSLRLSCAASGRTFAYNTMGWYRQAPGKERELVAAITSGGNTYYADSVKGRFTISRDNAKNTVYLQMNSLKPEDTAVYYCARYFTARLEGGYWGQGTQVTVSS | high polyreactivity |
| QVQLVESGGGLVQAGGSLRLSCAASGNTFVSNAMGWYRQAPGKERELVAAIDSGGSTNYADSVKGRFTISRDNAKNTVYLQMNRLKPEDTAVYYCNRTSVYYYYWGQGTQVTVSS | low polyreactivity |
| QVQLVESGGGLVQAGGSLRLSCAASGFTFPYYAMGWYRQAPGKERELVAAISYSGSTTYYADSVKGRFTISRDNAKNTVYLQMNSLKPEDTAVYYCAKAGYYYFQQWQVDYWGQGTQVTVSS | high polyreactivity |
| QVQLVESGGGLLQAGGSLRLSCAASGIIYRPYAMGWYRQAPGKERELVAAITGSGVSTYYADSVKGRFTISRDNAKNTVYLQMNSLKPEDTAVYYCAKRYNRGYHRYDSWGQGTQVTVSS | low polyreactivity |
| QVQLVESGGGIVQPGGSLRLSCAASGSIFGYNAIGWYRQAPGKERELVAAISTSSGSTYYADSVKGRFTISRDNAKNTVFLQMNSLKPEDTAVYYCAARDRPFGRYDYWGQATQVTVSS | low polyreactivity |
| QVQLVESGGGLVQAGGSLRLSCAASGSIFPGFAMGWYRQAPGKERELVAAISTSGGNTYYADSVKGRFTISRDNAKNTVYLQMNSLKPEDTAVYYCAVRHRLYTAGYDYWGQGTQVTVSS | low polyreactivity |
| QVQLGESGGGLVQEGGSLRLSCAASGRILSRYAKGWYRQAPGKERELVAAISRSGGSTYYADSVKGRFTISRDNAKNTVYLQMNSLKPEDTAVYYWARDVSLSTGYDYWGQGTQVTVSS | high polyreactivity |

| Sequence | polyreactivity (PSR sort gate) |
| --- | --- |
| QVQLVESGGGLVQAGGSLRLSCAASGLTFVDNALGWYRQAPGKDRELVAAISYNGGTTYYADSVKGRFTISRDNAKNTVYLQIISLKPEDTAVFYCAADISVGRYGDMDYWGQGTQVTVSS | low polyreactivity |
| QVQLVESGGGLVQAGGILRLSCAASGSIFAHYTMGWYRKAPGKERELVAAISGSGGSTYYADSVKGRFTISRDNAKNTVYLQMNSLKPEVTAVYYCNKRYRPVGPYDYWGQGTQVTVSS | high polyreactivity |
| QVQLVESGGGLVQAGGSLRLSCAASGNTFAENDMGWYRQAPGKERELVAAITYSGGDTYYADSVKGRFTISRDNAKNTVYLQMNSLKPEDTAVYYCAADNGSKEFDYWGQGTQVTVSS | low polyreactivity |
| QVQLVVSGGGLVQAGGSLRLSCAASGSTFSLNAMGWYRQAPGKERELVAVITRGTSTYYADSVKGRFTISRDNAKNTVYLQMNRLTPEDNAVYYCAAAVWWSVVWAARYGYWGQGTQVTVSS | low polyreactivity |
| QDQLVESGGCLVQAGGSLRLRCAASGITFDRYTMGWYRQAPGKERELVAAIRSGGGTYYADSVKGRFTISRDNAKNTVYLQMNSLKPEDTAVYYCAATRVSPSQYLRYYYWGQGTQVTVSS | high polyreactivity |
| QVQLVESGGGLVQAGGSLRLSCASSGFIFSTSALGWYRQAPGKERELVAAISRTGGSTYYADSDKGRFTISRDNANNTVYLQMNSLKPEDTAVYYCAAAIYSFWYEYNYWGHGTQVTVSS | high polyreactivity |
| QVQLVESGGGLVQAGGSLRLSCAASGIIFSSYAMGWYRQAPGKERELVAAITYNGGRTYYADSVKGRFTISRDNAKNTVYLQMNSLKPEDTAVYYCAARTYGGNVLRLDYWGQGTQVTVSS | high polyreactivity |
| QVQLVESGGGLVQAGGSLRLSCAASGRTFPINTMGWYRQAPGKEREFVAAITLGGRTYYADSVKGRFTISRDNAKNTVYLQMNSLKPEDTAVYYCNARTYVRRPLGYWGQGTQVTVSS | high polyreactivity |
| QVQLVESGGGLVQAGGSLRLSCSASGSTFYVYAMGWYRQAPGKERELVAAITDSGGSTYYADSVKGRFTISRDNAKNTVYLQMNILKPEDTAVYYCAREYTYRYHYYYWGQGTQVTVSS | low polyreactivity |
| QVQLVESGGGLVQAGGSLRLSCAASGFIFSYYAMGWYRQAPGKERELVAAINYSGGRTYYADSVKGRFTISRDYAKNTVYLQMNSLKPEDTAVYYCNAVTFGRRAFDYWGQGTQVTVSS | high polyreactivity |
| QVQLVESGGGLVQAGGSLRLSCAASGRIFNGNDMGWYRQAPGKERELVAAISYSGGSTYYADSVKGRFTISRDNAKNTVYLQMNSLKPEDTAVYYCAALTIRVGSLGRDYWVQGTQVTVSS | low polyreactivity |
| QVQLVESGGGLVQAGGSLRLSCAASGRIFWANAMGWYRQATGKERELVAAITGSGRTYYADSVKGRFTISRDNAKNTVYLQMISLKREDTAVYYCAAVTYYELAQGYGYWGQGTQVTVSS | high polyreactivity |
| QVQLVESGGGLVQAGGSLRLSCAASGRTFTIYAMGWYRQAPGKERELVAAISWSDGSTYYADSVKGRFTISRDNAKNTVYLQMNSLKPEDTAVYSCAREVYGDASAPDMDYWGQGTQVTVSS | low polyreactivity |
| QVQRVESGGGLVQAGGSLRLSCAASGRTFLQYAMGWYSQAPGKVREFVAAINWSGGSTYYAASVKRRFTISRDNAKNTVYLPMHSLKPEDTAVYYCAARRVYLGEYDYWGQGTQVTVSS | high polyreactivity |
| QVQLVESGGGLVQAGGSLRLSCAASGRIFARYAMGWYRQAPGKERELVAAISRGGSTKYADSVKGRFTISRDNAKNTVYLQMNSLKPEDTAVYYCARQLWGSPYGAYYAGDYWGQGTQVTVSS | low polyreactivity |
| QVQLVESGGGLVQAGGSLRLSCAPSGYTFIFNVMGWYRQAPGKERELVAAISYSGGSTNYADSVKGRYTTSRDNAKNTVYFQMNSLKPEDTAVYYCNARTVSRNGYQDDYWGQGTQVTVSS | low polyreactivity |
| QVQLVESGGGLVQAGGSHRLSCAASGRIFRSYAMGWYRQAPGKERELVAAISDRGGSTYYADSVKGRFTISRDNAKKTVYVQMNRLKAEDTAVYSCNAPRGGRNTVYYWGQGTQVTVSS | high polyreactivity |
| QVQLVESEGGLVQAGGSLRLSFAASGSIFPYNAMGWYRQAPGKERELVAAISISGGSTYYADSVKGRFTISRDNAKNTVYLLMNSLKPEDTAVYYCAARQSLSSAFDYCGQGTQVTVSS | low polyreactivity |
| QVQLVESGRGLVQAGGSLRLSCAASVNIFRGYTMGRYRQAPGTERELVATITWNGVSTFYADSVKGRFTISRDNAKNTVYLQMHSLKPEDTAVYYCAAYYPSHDYSGFWSDTYEYWGQGTQVTVSS | low polyreactivity |
| QVQLVESGGGLVQAGGSLRLSCAASGRILTGYAMGWYRQAPGKERELVAAISNDTDSTHYADSVKGRFTISRDNAKNTVYLQMNSLKPEDTAVYYCATDAPLQKRWRRFDYWGQGTQVTVSS | low polyreactivity |
| QVQLVESGGGLVQAGGSLRLSCAASGRIFLVYVMGWYRQAPGKERELVADITFSGGSTYYADSVKGRFTISRDNAKNTVYLQMNSLKPEDTAVYYCAARKPRSGGPFDYWGQGTQVTVSS | high polyreactivity |
